Results as given in PMC11589570 (Nature Communications, 2024).
No end group written: not given here.

Assays:
Conditions in all cases: both partners purified
GABARAPL1_(1-117) = GABARAPL1_(1-117) (human, UniProt Q9H0R8 1-117); test: fluorescence polarisation; tracer displacement: 30 nM Cy5-labelled p62 LIR probe with 4 µM LC3/GABARAPs, small-molecule compounds titrated from 20 µM to 20 nM; same assay buffer; 1 h at room temperature
LC3C_(1-126) = LC3C_(1-126) (human, UniProt Q9BXW4 1-126); test: as above
LC3B_(1-120) = LC3B_(1-120) (human, UniProt Q9GZQ8 1-120); test: as above
GABARAPL2_(1-117) = GABARAPL2_(1-117) (human, UniProt P60520 1-117); test: as above
GABARAP_(1-116) = GABARAP_(1-116) (human, UniProt O95166 1-116); test: as above
LC3A_(1-120) = LC3A_(1-120) (human, UniProt Q9H492 1-120); test: fluorescence polarisation; direct titration: 30 nM Cy5-labelled p62 LIR probe, purified LC3/GABARAPs titrated from 55 µM to 600 pM; 50 mM HEPES pH 7.5, 150 mM NaCl, 5 % glycerol, 1 mM TCEP, 0.05% TWEEN20; 1 h at room temperature; 384-well plate

Measured: binding result

B1: fluorescently labeled p62 LIR probe (SDNSSGGDDDWTHLSSK-Cy5) (peptide)
peptide: SDNSSGGDDDWTHLSSK-Cy5
notes: also called p62 LIR peptide linked to a Cy5 fluorophore; tracer
binds: all assays above
